One test addresses T1, HLA A*11:01 (human).
T1 construct: purified HLA A*11:01 molecules
Put plainly: competition with radiolabeled peptide, purified HLA A*11:01.

Another test deals with T2, HLA DQB1*04:02 (human).
T2 construct: purified HLA class II molecule; only the beta-chain allele is printed
Nature of the test: competition with radiolabeled peptide, purified HLA.

The target in the next test is T3, HLA DQB1*05:01 (human).
T3 construct: purified HLA class II molecule; only the beta-chain allele is printed
The test is described as above.

The target of the next test is T4, HLA DRB1*04:01 (human).
T4 construct: purified HLA class II molecule; only the beta-chain allele is printed
The test is described as above.

In a further test the target is T5, HLA DRB3*01:01 (human).
T5 construct: purified HLA class II molecule; only the beta-chain allele is printed
The description is as above.

The target in another test is T6, HLA DPB1*02:01 (human).
T6 chain 1: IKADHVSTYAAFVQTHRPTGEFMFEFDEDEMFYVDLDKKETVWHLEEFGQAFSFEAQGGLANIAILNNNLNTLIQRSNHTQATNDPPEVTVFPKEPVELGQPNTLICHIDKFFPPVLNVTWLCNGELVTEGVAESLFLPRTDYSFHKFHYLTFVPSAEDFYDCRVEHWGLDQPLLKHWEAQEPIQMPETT
T6 chain 2: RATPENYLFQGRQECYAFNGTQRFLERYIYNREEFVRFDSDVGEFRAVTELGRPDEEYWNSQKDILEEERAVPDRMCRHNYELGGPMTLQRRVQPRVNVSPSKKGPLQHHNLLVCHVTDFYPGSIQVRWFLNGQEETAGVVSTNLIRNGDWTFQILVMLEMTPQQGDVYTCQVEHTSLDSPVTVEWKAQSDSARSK
Described as above.

The target of another test is T7, HLA DPB1*04:01 (human).
T7 chain 1: T6 chain 1
T7 chain 2: T6 chain 2 with V36A, D55A, E56A, E69K
Described as above.

In another test the target is T8, HLA DPB1*04:02 (human).
T8 construct: purified HLA class II molecule; only the beta-chain allele is printed
The description is as above.

In a further test the target is T9, HLA DPB1*05:01 (human).
T9 construct: purified HLA class II molecule; only the beta-chain allele is printed
The test is described as above.

Numbering of substitutions follows the chain as printed. Where no end group is shown, it is not given here. [ ]: non-standard residue; d: D form. pY = N[C@@H](Cc1ccc(OP(=O)(O)O)cc1)C(=O)O

Broadly, the IC50 is the concentration that gives 50% inhibition. Read a high IC50 as a need for much substance. Turning to VLYVGSKTK (synthetic 9-mer; also called the 9 mer) [alpha-syn peptide aa37VLYVGSKTKaa45], the IC50 in the test with HLA A*11:01 was 161 nM.
Regarding DNEAYEMPSEEGYQD (synthetic 15-mer of alpha-synuclein) [alpha-syn peptide aa121DNEAYEMPSEEGYQDaa135], the IC50 was 51 nM with HLA DQB1*04:02, 7 nM with HLA DQB1*05:01, 76 nM with HLA DRB1*04:01 and 787 nM with HLA DRB3*01:01.

B1: alpha-syn peptide aa32KTKEGVLYVGSKTKEaa46 phosphorylated at Y39 (peptide)
peptide: KTKEGVL[pY]VGSKTKE
notes: synthetic post-translationally modified 15-mer; also called Phospho-Y
In the case of B1, the concentration for half-maximal inhibition (IC50) was 620 nM with HLA DPB1*02:01, 937 nM with HLA DPB1*04:01, 1600 nM with HLA DPB1*04:02 and 777 nM in the test with HLA DPB1*05:01.

The values above are taken from patent publication US20200095296A1 (TRUSTEES OF COLUMBIA UNIVERSITY IN THE CITY OF NEW YORK, published 2020).
